Article doi:10.1101/2020.01.12.903617, “The peptide sensor motif stabilizes the outward-facing conformation of TmrAB” (bioRxiv, 2020)
Residue numbers refer to the chain shown, from its start. No end group written: not given here. fluorescein = fluorescein label attached to the Cys side chain

How the values were obtained:
[1] = target: T1, WT TmrAB, heterodimeric peptide exporter from Thermus thermophilus (Thermus thermophilus, UniProt Q72J05 1-600; Q72J04 1-578); assay: fluorescence polarisation; 1.7 uM TmrAB with 50 nM RRY(C^Fluorescein)KSTEL in SEC buffer (20 mM HEPES, 150 mM NaCl, pH 7, 0.05% ß-DDM), 15 minutes on ice, in the absence or presence of 5 mM ATP and 10 mM MgCl2; read at 25°C (the results say 4°C); signal normalized to WT without ATP; conditions: both partners purified
T1 construct: TmrA, Thermus thermophilus, the chain of TmrAB with the canonical Walker B motif; TmrB, Thermus thermophilus, the chain of TmrAB with the non-canonical Walker B motif; TmrAB template in pet22b; also called wild-type TmrAB
T1 sequence 1: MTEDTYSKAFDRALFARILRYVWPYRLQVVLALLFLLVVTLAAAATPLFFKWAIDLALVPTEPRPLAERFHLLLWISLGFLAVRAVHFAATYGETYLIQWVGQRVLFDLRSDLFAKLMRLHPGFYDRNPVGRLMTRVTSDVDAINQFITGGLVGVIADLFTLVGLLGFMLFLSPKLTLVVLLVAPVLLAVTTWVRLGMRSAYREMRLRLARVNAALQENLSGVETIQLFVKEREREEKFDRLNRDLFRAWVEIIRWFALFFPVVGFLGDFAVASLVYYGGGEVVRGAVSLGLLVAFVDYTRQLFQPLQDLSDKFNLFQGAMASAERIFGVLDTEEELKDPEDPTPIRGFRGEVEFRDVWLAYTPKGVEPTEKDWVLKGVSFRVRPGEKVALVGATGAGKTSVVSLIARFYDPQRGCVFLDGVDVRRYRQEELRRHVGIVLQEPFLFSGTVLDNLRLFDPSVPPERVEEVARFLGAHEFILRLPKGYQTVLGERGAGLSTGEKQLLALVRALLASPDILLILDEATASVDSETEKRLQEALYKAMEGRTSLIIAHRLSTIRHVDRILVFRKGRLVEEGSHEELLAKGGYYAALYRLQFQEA
T1 sequence 2: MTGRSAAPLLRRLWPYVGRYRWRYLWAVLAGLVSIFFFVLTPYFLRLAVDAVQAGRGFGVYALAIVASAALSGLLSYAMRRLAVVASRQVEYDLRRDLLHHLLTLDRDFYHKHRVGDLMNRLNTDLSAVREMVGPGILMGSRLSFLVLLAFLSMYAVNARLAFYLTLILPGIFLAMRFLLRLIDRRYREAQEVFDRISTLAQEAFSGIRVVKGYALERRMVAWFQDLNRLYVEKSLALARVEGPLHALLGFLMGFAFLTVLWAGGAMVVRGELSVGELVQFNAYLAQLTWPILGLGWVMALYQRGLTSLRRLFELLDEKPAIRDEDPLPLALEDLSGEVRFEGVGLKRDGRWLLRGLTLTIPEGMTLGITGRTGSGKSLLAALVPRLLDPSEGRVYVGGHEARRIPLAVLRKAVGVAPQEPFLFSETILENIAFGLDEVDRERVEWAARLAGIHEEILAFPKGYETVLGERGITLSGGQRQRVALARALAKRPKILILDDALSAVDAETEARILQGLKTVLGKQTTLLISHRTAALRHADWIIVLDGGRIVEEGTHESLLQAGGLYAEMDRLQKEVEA

[2] = target: T2, TmrAB R121A^TmrB (Thermus thermophilus, UniProt Q72J05 1-600; Q72J04 1-578, R121A); assay: as above; conditions: both partners purified
T2 construct: TmrA, Thermus thermophilus, the chain of TmrAB with the canonical Walker B motif; TmrB, Thermus thermophilus, the chain of TmrAB with the non-canonical Walker B motif
T2 sequence 1: T1 sequence 1
T2 sequence 2: T1 sequence 2 with R121A

B1: fluorescent transport substrate peptide RRY(C^Fluorescein)KSTEL (peptide)
peptide: RRYC(fluorescein)KSTEL
notes: fluorescein-labelled transport substrate peptide of TmrAB; also called fluorescently-labeled peptide substrate; peptide substrate; source: bought: Genscript
B1: binds [1]; binds [2].
